{"source": "patent US20260125455A1", "about": "(CLEVELAND CLINIC FOUNDATION, published 2026)", "binders": {"B1": {"name": "MoC601 MoG1K (mouse anti-C6 monoclonal antibody 1C9) (antibody, V domains shown)", "VH": "QVQLQQSGAELVKPGASVKISCKASGYAFSDYWMNWVKQRPGKGLEWIGQIYPGDDDTNYNGKFKGKATLTADKSSSTAYMQLSSLTSEDSAVYFCAREGYYGYTYVEYFDVWGTGTTVTVSS", "VL": "QIVLTQSPAIMSVSPGEKVTLTCSASSSVSYMHWYQQKSGTSPKRWIYDTSKLASGVPARFSGSGSGTSYSLTISSMEAEDAATYYCQQWTSNPLTFGAGTKLELR", "notes": "also called mAb 1C9; mouse antibody"}}, "key": {"[1]": {"biological_target": "T1, human complement protein C6 (human, UniProt P13671 22-934)", "T1 construct": "also called human C6; C6 antigen", "T1 sequence (P13671 22-934 limits assumed)": "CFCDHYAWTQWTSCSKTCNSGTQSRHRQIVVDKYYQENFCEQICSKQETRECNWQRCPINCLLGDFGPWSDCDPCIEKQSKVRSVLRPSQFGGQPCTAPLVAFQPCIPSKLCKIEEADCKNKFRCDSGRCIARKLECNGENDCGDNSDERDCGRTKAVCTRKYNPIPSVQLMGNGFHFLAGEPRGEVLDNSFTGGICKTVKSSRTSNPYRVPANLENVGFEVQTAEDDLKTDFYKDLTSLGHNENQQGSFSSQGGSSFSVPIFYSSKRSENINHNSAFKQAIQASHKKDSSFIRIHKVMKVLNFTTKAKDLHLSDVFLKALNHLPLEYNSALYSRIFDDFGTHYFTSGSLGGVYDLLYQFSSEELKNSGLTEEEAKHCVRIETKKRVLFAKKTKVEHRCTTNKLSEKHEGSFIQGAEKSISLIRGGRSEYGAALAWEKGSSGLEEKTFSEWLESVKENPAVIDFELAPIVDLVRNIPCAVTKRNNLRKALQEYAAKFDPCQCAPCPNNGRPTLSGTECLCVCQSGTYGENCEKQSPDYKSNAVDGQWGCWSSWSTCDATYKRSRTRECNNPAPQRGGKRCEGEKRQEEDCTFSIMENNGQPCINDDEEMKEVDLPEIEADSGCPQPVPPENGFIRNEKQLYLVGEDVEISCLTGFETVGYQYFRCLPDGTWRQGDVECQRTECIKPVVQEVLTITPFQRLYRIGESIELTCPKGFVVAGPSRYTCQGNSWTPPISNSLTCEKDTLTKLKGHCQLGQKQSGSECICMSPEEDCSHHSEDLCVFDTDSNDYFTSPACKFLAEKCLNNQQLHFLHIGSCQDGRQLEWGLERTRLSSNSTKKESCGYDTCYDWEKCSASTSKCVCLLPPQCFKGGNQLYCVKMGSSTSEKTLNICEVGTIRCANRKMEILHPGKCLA", "assay": "BLI (Octet RED384), antibody on anti-mouse Fc (AMC) biosensors, C6 0.16-10 nM, 1:1 fit, experiment 1; experiment 1", "experimental": "(§1) The binding of the purified chimeric molecules, MoC601 HuG4K and MoC601 HuG1KFab, was also confirmed by ELISA, where the anti-human IgG (Fab-specific) secondary reagent was used. The control mouse antibody bound as previously (EC₅₀ 0.11 nM). The EC₅₀ for purified MoC601 HuG4K (0.27 nM) was similar to that obtained for the MoC601 HuG4K supernatant sample above. […] The EC₅₀ value for the Fab molecule (0.48 nM) was higher than for the antibody, which would be expected since the Fab is unable to bind bivalently to the antigen on the well. A C6-binding assay was also set up on the Octet RED384 instrument. […] However, MoC601 MoG1K could be stably loaded onto anti-mouse Fc (AMC) biosensors. Concentrations of the mouse and chimeric antibodies were adjusted to give similar levels of loading on to the AMC and\n(§2) Protein G biosensors respectively in subsequent experiments. There was no non-specific binding of C6 protein to unloaded sensors or sensors loaded with an isotype control antibody. A full kinetic experiment was run for purified MoC601 MoG1K and MoC601 HuG4K antibodies using seven concentrations of C6 (0.16-10 nM) and association and dissociation steps of 20 and 15 minutes respectively. The mouse and chimeric datasets were processed by subtracting the no antigen controls and the data were fitted to a 1:1 binding model. […]"}, "[2]": {"biological_target": "T1, human complement protein C6", "assay": "ELISA, C6-coated wells", "experimental": "as §1, with “AMC and […]” for “AMC and”"}, "[3]": {"biological_target": "T1, human complement protein C6", "assay": "BLI (Octet RED384), antibody on anti-mouse Fc (AMC) biosensors, C6 0.16-10 nM, 1:1 fit, experiment 1", "experimental": "as §1, §2"}, "[4]": {"biological_target": "T1, human complement protein C6", "assay": "ELISA, C6-coated wells, same experiment as the chimeric supernatants", "experimental": "The chimeric molecules, MoC601 HuG4K and MoC601 HuG1KFab, were tested for C6 binding in the form of expression supernatants. In this experiment, the human molecules were detected with an HRP-conjugated goat anti-human kappa chain reagent, which gave relative low signals. However, the binding of both chimeric molecules to C6 was confirmed. The EC₅₀ value for MoC601 HuG4K (0.43 nM) was higher than that of the mouse antibody (0.07 nM), though this was lower than in previous experiments. A further experiment was performed to find a more suitable anti-human antibody detection reagent. MoC601 HuG4K from expression supernatant was detected with three different secondary antibodies. Both anti-human IgG Fc-specific and Fab-specific detection gave higher signals than the anti-kappa chain reagent but the Fc-specific detection yielded a very low EC₅₀ (0.03 nM)."}, "[5]": {"biological_target": "T1, human complement protein C6", "assay": "BLI (Octet RED384), antibody on anti-mouse Fc (AMC) biosensors, C6 0.27-5 nM, 1:1 fit, experiment 2", "experimental": "as §1\nProtein G biosensors respectively in subsequent experiments. There was no non-specific binding of C6 protein to unloaded sensors or sensors loaded with an isotype control antibody. […] The mouse and chimeric datasets were processed by subtracting the no antigen controls and the data were fitted to a 1:1 binding model. Binding curves giving Req/Rₘₐₓ ratios>90% or showing poor fitting were excluded from analysis. A second full kinetic experiment was performed with an adjusted concentration range (six points, 0.27-5 nM) and an extended dissociation step of 20 minutes."}, "[6]": {"biological_target": "T1, human complement protein C6", "assay": "ELISA, C6 coated at 0.5 and 1.0 µg/ml, anti-mouse IgG (Fc-specific) HRP", "experimental": "Prior to the generation of the chimeric molecules, the binding ELISA was optimised using purified mouse 1C9 antibody. The ELISA method published in Lin et al., 2020, uses human C6 protein at a concentration of 1 nM (0.12 μg/ml) to coat the ELISA plate wells. Since this is lower than the concentrations generally used, coating concentration of 0.5 μg/ml and 1.0 μg/ml were also tested. Binding of the mouse antibody (designated MoC601 MoG1K) was detected with an HRP-conjugated goat anti-mouse IgG (Fc-specific) reagent in an ELISA assay. […] This is likely to make the assay unsuitable for differentiating between the binding of different humanized variants to C6. In contrast, C6 coating concentrations of 0.5 μg/ml and 1.0 μg/ml yield results which show a clear dose-response to MoC601 MoG1K antibody, with sigmoidal-shaped curves and a consistent EC₅₀ value (0.12 nM). […] Due to lower signal variation, 1.0 μg/ml was used as the C6 coating concentration in subsequent experiments."}}}
{"binder": "B1", "values": [{"measurement": "koff", "setting": "[1]", "value": 0.00031, "unit": "s⁻¹"}, {"measurement": "EC50", "setting": "[2]", "value": 0.11, "unit": "nM"}, {"measurement": "Kd", "setting": "[3]", "value": 0.42, "unit": "nM"}, {"measurement": "kon", "setting": "[3]", "value": 730000, "unit": "M⁻¹ s⁻¹"}, {"measurement": "EC50", "setting": "[4]", "value": 0.07, "unit": "nM"}, {"measurement": "Kd", "setting": "[5]", "value": 0.29, "unit": "nM"}, {"measurement": "kon", "setting": "[5]", "value": 690000, "unit": "M⁻¹ s⁻¹"}, {"measurement": "EC50", "setting": "[6]", "value": 0.12, "unit": "nM"}]}
